This is an account of results in patent publication US10513545B2, “Fusion polypeptide in which anti-inflammatory polypeptide and ferritin monomer fragment are bound and pharmaceutical composition for preventing and treating inflammatory diseases, containing same as active ingredient” (KYUNGPOOK NATIONAL UNIVERSITY INDUSTRY-ACADEMIC COOPERATION …, priority 2015, dated 2019).

The subject of one test is PAR-1. The experiment in a line: PAR-1 cleavage assay in transfected HUVECs (ALP activity). As to conditions: FIG. 13. Format: cell-based. The protocol:
HUVECs at 90% confluence in 24-well plates were transiently transfected with pRc/RSV containing ALP-PAR-1-TF cDNA in antibiotic-free Opti-MEM medium using Lipofectamine (Invitrogen) according to the manufacturer's instruction. On the following day, cells were washed and incubated in serum-free medium for 5 h. Cells were then incubated for an additional hour with thrombin, TRAP, TFG, or TFMG. Conditioned medium was collected and centrifuged to remove cellular debris. Supernatant was collected, and ALP (alkaline phosphatase) activity was measured using EnzoLyte™ p-nitrophenyl phosphate alkaline phosphatase assay kit (AnaSpec, San Jose, Calif.) according to the manufacturer's instructions.

Test [1] has as its target T1, soluble EPCR (sEPCR) (Homo sapiens, UniProt Q9UNN8).
T1 construct: 96-well flat microtiter plates were coated with soluble EPCR
T1 sequence (Q9UNN8 18-210 limits assumed): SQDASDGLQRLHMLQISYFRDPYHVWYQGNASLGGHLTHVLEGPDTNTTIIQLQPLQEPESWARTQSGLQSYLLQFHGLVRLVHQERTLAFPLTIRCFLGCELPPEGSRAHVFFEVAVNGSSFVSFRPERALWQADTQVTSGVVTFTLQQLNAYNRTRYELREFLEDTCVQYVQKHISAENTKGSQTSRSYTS
As to conditions: in an aqueous solution; read-out: previously reported binding affinity for PC to sEPCR; cited from earlier work.

Test [2] addresses T1, soluble EPCR (sEPCR). The test can be described thus: solid-phase ELISA for binding affinity to soluble EPCR. Conditions: FIG. 9, read-out: Kd(app) for the interaction with sEPCR. The protocol: 9. Enzyme-Linked Immunosorbent Assays (ELISA) for Evaluating EPCR (Endothelial Protein C Receptor) Binding Affinity
To evaluate the interaction of the wild-type PC, PC-Gla peptides, TFG, and TFMG with EPCR, 96-well flat microtiter plates were coated with soluble EPCR in 20 mM carbonate-bicarbonate buffer (pH 9.6) containing 0.02% sodium azide, overnight at 4° C. After the plates were washed three times in TBS buffer (0.1 M NaCl, 0.02 M Tris-HCl, pH 7.4) containing 0.05% Tween 20, the plates were incubated with wild-type PC, PC-Gla peptides, TFG, and TFMG (7-1000 nM) diluted in the buffer for 1 h. After the plates were rinsed again, they were incubated with a goat anti-protein C polyclonal antibody (1:1000) for 1 h. Then, the plates were washed and incubated with rabbit anti-goat IgG (KPL, MD, 1:1000) for 1 h. After washing, the plates were incubated with 2,2′-azino-di(3-ethylbenzthiazoline-6-sulfonate) (ABTS; KPL, Gaithersburg, Md.). Colorimetric analysis was performed by measuring absorbance values at 405 nm.

Like-named read-outs stand apart in the source and are kept apart here.

“TRAP peptides: thrombin receptor agonist peptide TFLLRN (SEQ ID NO: 3), activates PAR-1 (Thrombin receptor agonist peptide (TRAP)) [reference compound]”: in the test on PAR-1, the “PAR-1 cleavage activity (ability to activate PAR-1)” value is reported as “strong similarities”.
On to “wild type PC: wild-type Protein C, comparator in the EPCR binding ELISA [reference compound]”, for which the Kd in the test with soluble EPCR (sEPCR) [1] was 0.029 µM; in the test with soluble EPCR (sEPCR) [2], roughly 0.0313 µM.
